Non-standard residues stand in square brackets, D forms with d. Primed or numbered codes have the meaning given here. No end group written: not given here. Me2a″ = asymmetric dimethylarginine (Rme2a); Me2s″ = symmetric dimethylarginine (Rme2s); Arg(Me2a) = CN(C)C(=N)NCCC[C@H](N)C(=O)O; Lys(Me3) = C[N+](C)(C)CCCC[C@H](N)C(=O)O; Arg(Me2s) = CN=C(NC)NCCC[C@H](N)C(=O)O; pT = C[C@@H](OP(=O)(O)O)[C@H](N)C(=O)O; Me2a = asymmetric dimethyl (on Arg); Lys(Me2) = CN(C)CCCC[C@H](N)C(=O)O; pS = N[C@@H](COP(=O)(O)O)C(=O)O; Lys(Me) = CNCCCC[C@H](N)C(=O)O; Me3″ = trimethyl lysine (Kme3); Me2 = dimethyl (on Lys)
T1: Bdf1 bromodomain 2 (GST-tagged, WT) (Saccharomyces cerevisiae (strain ATCC …, UniProt P35817))
T1 chain: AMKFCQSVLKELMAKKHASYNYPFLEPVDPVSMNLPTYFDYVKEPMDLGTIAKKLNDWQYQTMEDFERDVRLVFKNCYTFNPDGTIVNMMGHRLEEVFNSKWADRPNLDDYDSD

T2: Bdf1 bromodomain 1 (GST-tagged, WT) (Saccharomyces cerevisiae (strain ATCC …, UniProt P35817))
T2 chain: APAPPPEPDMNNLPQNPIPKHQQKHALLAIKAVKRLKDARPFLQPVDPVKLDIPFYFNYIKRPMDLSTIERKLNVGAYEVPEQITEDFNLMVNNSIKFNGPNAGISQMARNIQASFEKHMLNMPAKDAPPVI


Molecular target: T1, Bdf1 bromodomain 2 (GST-tagged, WT)
Assay: histone peptide array probed with recombinant GST-bromodomain, signal normalised to myc peptide control

binding score | Binder
0.0105 | ARTKQTARKSTGGKAPRKQ (A Rme2a T Kac Q T A Rme2a Kme2 S T G G K A P R K Q)
0.0133 | ARTKQTARKSTGGKAPRKQ (A R T Kac Q T A Rme2s Kme2 S T G G K A P R K Q)
0.00797 | SGRGKQGGK(Ac)ARAKAKSRSS
0.00502 | [pS]GRGKQGGKARAKAKSRSS
0 | ARTKQTARKSTGGKAPRKQ (A R T K Q T A R Kme1 pS T G G K A P R K Q)
0.00305 | ARTKQTARKSTGGKAPRKQ (A Rme2s T Kme3 Q T A Rme2a Kac S T G G K A P R K Q)
0.00915 | ARTK(Ac)QTAR(Me2a)K(Me2)STGGKAPRKQ
0 | ARTKQTA[Arg(Me2a)][Lys(Me)]S[pT]GGKAPRKQ
0 | PRKQLATKAAR(Me2a″)K(Me3″)[pS]APATGG
0.000885 | ARTKQTARKSTGGKAPRKQ (A R T Kme2 Q T A Rme2a Kme2 S T G G K A P R K Q)
0.00443 | A[Arg(Me2a)]T[Lys(Me3)]QTAR[Lys(Me2)]STGGKAPRKQ
0.0294 | SGRGKGGKGLGKGGAKRHR (S G Rme2s G K G G Kac G L G K G G A K R H R) [H4 1-19]
0.00108 | A[Arg(Me2a)]T[Lys(Me2)]QTARK(Ac)STGGKAPRKQ
0 | ARTKQTARKSTGGKAPRKQ (A Rme2a T Kme3 Q T A Rme2s Kme3 S T G G K A P R K Q)
0.168 | PDPAK(Ac)SAPAPKKG[pS]K(Ac)KAVT [H2B 1-19]
0.006 | RRKKKRRKKKRKRKKRK (R Rme2s K Kme1 Kac R Rme2a Kme2 K Kme3 R Kme1 Rme2s K Kac R K) [background 02]
0.00895 | ARTKQTARKSTGGKAPRKQ (A Rme2s T Kme2 Q T A R Kme1 S T G G K A P R K Q)
0.00797 | ARTKQTARKSTGGKAPRKQ (A Rme2s T Kme2 Q T A Rme2a Kme3 S T G G K A P R K Q)
0.0821 | ARTKQTARKSTGGKAPRKQ (A R T Kac Q T A Rme2a Kac S T G G K A P R K Q)
0 | PRKQLATKAAR[Lys(Me3)]SAPATGG
0.00915 | ARTK(Ac)QTAR(Me2s″)K(Ac)STGGKAPRKQ
0 | PRKQLATKAA[Arg(Me2s)][Lys(Me2)]SAPATGG

Molecular target: T2, Bdf1 bromodomain 1 (GST-tagged, WT)
Assay: as above

binding score | Binder
0.00143 | ARTKQTARKSTGGKAPRKQ (A Rme2a T Kac Q T A Rme2a Kme2 S T G G K A P R K Q)
0.00251 | ARTKQTARKSTGGKAPRKQ (A R T Kac Q T A Rme2s Kme2 S T G G K A P R K Q)
0.00717 | SGRGKQGGK(Ac)ARAKAKSRSS
0 | [pS]GRGKQGGKARAKAKSRSS
0 | ARTKQTARKSTGGKAPRKQ (A R T K Q T A R Kme1 pS T G G K A P R K Q)
0.0136 | ARTKQTARKSTGGKAPRKQ (A Rme2s T Kme3 Q T A Rme2a Kac S T G G K A P R K Q)
0.00179 | ARTK(Ac)QTAR(Me2a)K(Me2)STGGKAPRKQ
0 | ARTKQTA[Arg(Me2a)][Lys(Me)]S[pT]GGKAPRKQ
0 | PRKQLATKAAR(Me2a″)K(Me3″)[pS]APATGG
0 | ARTKQTARKSTGGKAPRKQ (A R T Kme2 Q T A Rme2a Kme2 S T G G K A P R K Q)
0 | A[Arg(Me2a)]T[Lys(Me3)]QTAR[Lys(Me2)]STGGKAPRKQ
0 | SGRGKGGKGLGKGGAKRHR (S G Rme2s G K G G Kac G L G K G G A K R H R) [H4 1-19]
0 | A[Arg(Me2a)]T[Lys(Me2)]QTARK(Ac)STGGKAPRKQ
0 | ARTKQTARKSTGGKAPRKQ (A Rme2a T Kme3 Q T A Rme2s Kme3 S T G G K A P R K Q)
0 | PDPAK(Ac)SAPAPKKG[pS]K(Ac)KAVT [H2B 1-19]
0.00538 | RRKKKRRKKKRKRKKRK (R Rme2s K Kme1 Kac R Rme2a Kme2 K Kme3 R Kme1 Rme2s K Kac R K) [background 02]
0 | ARTKQTARKSTGGKAPRKQ (A Rme2s T Kme2 Q T A R Kme1 S T G G K A P R K Q)
0 | ARTKQTARKSTGGKAPRKQ (A Rme2s T Kme2 Q T A Rme2a Kme3 S T G G K A P R K Q)
0.0576 | ARTKQTARKSTGGKAPRKQ (A R T Kac Q T A Rme2a Kac S T G G K A P R K Q)
0 | PRKQLATKAAR[Lys(Me3)]SAPATGG
0.0672 | ARTK(Ac)QTAR(Me2s″)K(Ac)STGGKAPRKQ
0 | PRKQLATKAA[Arg(Me2s)][Lys(Me2)]SAPATGG
